The values that follow are results of earlier work, collected in publication PMC7514057.

For this data set, the target named is ArkA peptide (Ark1p) Lys(3) to Lys(-8) (Saccharomyces cerevisiae) (UniProt P53974).

A word on the Kd: it is the free concentration of one partner at which half of the binding sites on the other are occupied at equilibrium, for simple one-to-one binding. On to Abp1p SH3 (from UniProt P15891), for which the Kd was 1700 nM.
